Experimental data taken from article PMC11189300, “Structure of the human KMN complex and implications for regulation of its assembly” (Nature Structural & Molecular Biology, 2024).

Tests used:
Settings in all cases: both partners purified
[1] = biological target: T1, DSN1 (subunit of Mis12C in the KMN structure) (human, UniProt Q9H410 1-356); assay: cryo-EM structure; eight-subunit KMN (full-length Mis12C, SPC24 109–197/SPC25 92–224, ZWINT, KNL1 2,021–2,342), 0.3 mg/ml with 0.003% Triton; reconstruction at 4.5 Å; model fitted from known structures and AF2 predictions and refined against the map
T1 construct: DSN1, human; also called DSN1^SORT-HIS; source: Tnao38 insect cells (baculovirus), co-expressed in Mis12C, purified (Talon, SEC)
T1 sequence (looked up): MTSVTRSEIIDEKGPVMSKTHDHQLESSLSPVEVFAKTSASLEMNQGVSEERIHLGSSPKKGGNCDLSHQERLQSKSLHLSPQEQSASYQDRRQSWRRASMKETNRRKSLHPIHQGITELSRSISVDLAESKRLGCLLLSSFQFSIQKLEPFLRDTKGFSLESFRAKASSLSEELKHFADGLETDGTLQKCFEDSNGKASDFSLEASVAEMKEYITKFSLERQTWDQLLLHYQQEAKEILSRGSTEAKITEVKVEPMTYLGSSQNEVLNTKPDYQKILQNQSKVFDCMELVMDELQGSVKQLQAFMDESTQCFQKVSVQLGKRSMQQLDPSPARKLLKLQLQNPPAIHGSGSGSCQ

[2] = biological target: T2, NSL1 (subunit of Mis12C in the KMN structure) (human, UniProt Q96IY1 1-281); assay: as above
T2 construct: NSL1, human; source: Tnao38 insect cells (baculovirus), co-expressed in Mis12C, purified (Talon, SEC)
T2 sequence (looked up): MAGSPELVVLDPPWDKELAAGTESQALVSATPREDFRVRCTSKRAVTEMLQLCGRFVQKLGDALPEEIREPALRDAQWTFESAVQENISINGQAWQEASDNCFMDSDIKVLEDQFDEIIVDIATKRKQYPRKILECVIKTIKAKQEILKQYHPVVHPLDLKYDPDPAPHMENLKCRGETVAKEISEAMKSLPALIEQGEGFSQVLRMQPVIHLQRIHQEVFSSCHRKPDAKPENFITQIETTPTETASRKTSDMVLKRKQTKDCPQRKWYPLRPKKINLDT

SPC25_(92–224) = biological target: T3, SPC25_(92–224) (human, UniProt Q9HBM1 92-224); assay: as above
T3 construct: SPC25, human, residues 92–224 (RWD domain); source: E. coli BL21(DE3)-codon-plus-RIPL, co-purified with SPC24 (glutathione-agarose, 3C protease, SEC)
T3 sequence (looked up): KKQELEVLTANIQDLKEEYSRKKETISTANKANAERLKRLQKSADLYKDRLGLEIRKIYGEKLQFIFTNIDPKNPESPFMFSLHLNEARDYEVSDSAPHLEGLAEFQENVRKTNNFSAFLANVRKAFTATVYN

[3] = biological target: T4, KNL1 residues 2,021–2,342 (human, UniProt Q8NG31 2021-2342); assay: SEC; KNL1 2,021–2,342, ZWINT, Mis12C and SPC24 109–197/SPC25 92–224 mixed equimolar on ice for at least 1 h; 50 mM HEPES pH 8.0, 150 mM NaCl, 2 mM TCEP; S200 5/150 column
T4 construct: KNL1 (CASC5), human, C-terminal region, residues 2,021–2,342; numbering of isoform 1 of the CASC5 gene; also called KNL1_(2,021–2,342); Knl1_(2,021–2,342); source: E. coli BL21(DE3)-Codon-plus-RIPL, purified (glutathione-agarose, TEV cleavage, SEC)
T4 sequence (looked up): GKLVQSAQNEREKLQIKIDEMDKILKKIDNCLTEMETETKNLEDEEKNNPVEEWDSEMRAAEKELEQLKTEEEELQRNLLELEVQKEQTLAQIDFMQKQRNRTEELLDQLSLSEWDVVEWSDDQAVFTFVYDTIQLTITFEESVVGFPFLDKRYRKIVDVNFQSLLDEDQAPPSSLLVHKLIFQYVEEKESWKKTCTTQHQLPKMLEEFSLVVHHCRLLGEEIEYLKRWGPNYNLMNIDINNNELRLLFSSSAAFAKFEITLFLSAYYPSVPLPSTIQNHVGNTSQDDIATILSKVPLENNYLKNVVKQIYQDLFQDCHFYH

Binder | binding result [1] | binding result [2] | binding result (SPC25_(92–224)) | binding result [3]
SPC24_(109–197) (domain or fragment, human, UniProt Q8NBT2 109-197, looked up, source: E. coli BL21(DE3)-codon-plus-RIPL, co-purified with SPC25 (glutathione-agarose, 3C protease, SEC)) EELKEIEADLERQEKEVDEDTTVTIPSAVYVAQLYHQVSKIEWDYECEPGMVKGIHHGPSVAQPIHLDSTQLSRKFISDYLWSLVDTEW | binds | binds | binds | –
ZWINT (natural protein, human, UniProt O95229 1-277, looked up, ZWINT, human; Probably made like the mutants (GST fusion, 3C cleaved); ZWINT was in the cryo-EM sample but is not visible in the map; also called ZWINT^WT) MEAAETEAEAAALEVLAEVAGILEPVGLQEEAELPAKILVEFVVDSQKKDKLLCSQLQVADFLQNILAQEDTAKGLDPLASEDTSRQKAIAAKEQWKELKATYREHVEAIKIGLTKALTQMEEAQRKRTQLREAFEQLQAKKQMAMEKRRAVQNQWQLQQEKHLQHLAEVSAEVRERKTGTQQELDRVFQKLGNLKQQAEQERDKLQRYQTFLQLLYTLQGKLLFPEAEAEAENLPDDKPQQPTRPQEQSTGDTMGRDPGVSFKAVGLQPAGDVNLP | – | – | – | binds
